In patent US20220008527A1 (AGENUS, published 2022):

Legend:
[1] = biological target: T1, recombinant human heat shock cognate 71 kDa protein (Hsc70) (human, UniProt P11142 1-646, limits assumed); assay: SEC of peptide-Hsc70 mixture; peptide:Hsc70 molar ratio 1:1
T1 construct: also called rhHsc70; human Hsc70

[2] = biological target: T1, recombinant human heat shock cognate 71 …; assay: SEC of peptide-Hsc70 mixture; peptide:Hsc70 molar ratio 2:1
[3] = biological target: T1, recombinant human heat shock cognate 71 …; assay: SEC of peptide-Hsc70 mixture; peptide:Hsc70 molar ratio 4:1
[4] = biological target: T1, recombinant human heat shock cognate 71 …; assay: SEC of peptide-Hsc70 mixture; peptide:Hsc70 molar ratio 0.5:1
[5] = biological target: T1, recombinant human heat shock cognate 71 …; assay: SEC of peptide-Hsc70 mixture; peptide:Hsc70 molar ratio 0.25:1
[6] = biological target: T1, recombinant human heat shock cognate 71 …; assay: size exclusion chromatography of polypeptide-Hsc70 mixtures, molar ratios 0.125:1 to 4:1 (FIG. 3A)

T1 sequence (P11142 whole entry): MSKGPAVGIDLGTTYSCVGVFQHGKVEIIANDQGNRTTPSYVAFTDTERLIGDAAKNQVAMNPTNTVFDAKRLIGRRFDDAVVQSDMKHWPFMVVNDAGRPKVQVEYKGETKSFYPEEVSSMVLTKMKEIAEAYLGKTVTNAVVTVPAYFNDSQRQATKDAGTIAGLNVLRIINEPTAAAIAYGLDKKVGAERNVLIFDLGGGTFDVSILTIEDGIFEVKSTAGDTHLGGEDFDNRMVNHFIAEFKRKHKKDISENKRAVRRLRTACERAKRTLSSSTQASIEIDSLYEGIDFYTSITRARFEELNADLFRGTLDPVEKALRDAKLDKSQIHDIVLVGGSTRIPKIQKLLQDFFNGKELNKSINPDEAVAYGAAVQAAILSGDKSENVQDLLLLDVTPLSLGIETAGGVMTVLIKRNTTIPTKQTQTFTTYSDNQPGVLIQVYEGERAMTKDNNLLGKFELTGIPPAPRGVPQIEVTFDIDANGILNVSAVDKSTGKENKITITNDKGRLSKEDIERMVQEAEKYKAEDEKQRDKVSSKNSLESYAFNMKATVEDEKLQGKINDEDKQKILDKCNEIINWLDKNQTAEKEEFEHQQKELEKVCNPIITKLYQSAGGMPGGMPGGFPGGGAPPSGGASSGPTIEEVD

Percent complexation with Hsc70 [1] [%] | Percent complexation with Hsc70 [2] [%] | Percent complexation with Hsc70 [3] [%] | Percent complexation with Hsc70 [4] [%] | Percent complexation with Hsc70 [5] [%] | binding result [6] | Binder
80.9 | 88.1 | 90.3 | 54.4 | 29.3 | – | FFRKQWLRLTW (Synthetic peptide) [PEP014]
75.9 | 83.7 | 86.3 | 52.2 | 24.1 | – | FFRKNWLKLKW (Synthetic peptide) [PEP055]
72.2 | 82.8 | 88.3 | 50 | 24.9 | – | FFRKNWLKLRW (Synthetic peptide) [PEP057]
75.6 | 82.9 | 86.6 | 48.1 | 22.5 | – | FFRKNLLRLTW (Synthetic peptide) [PEP155]
77 | 85.6 | 90 | 49 | 19.1 | – | FFRKNFLRLTF (Synthetic peptide) [PEP027]
75.6 | 84.1 | 87.5 | 46.4 | 24 | – | FRNWLRLTW (Synthetic peptide) [PEP028]
66.5 | 78.8 | 83.9 | 43.5 | 22.7 | – | FFRKNWLKLWK (Synthetic peptide) [PEP058]
– | – | – | – | – | binds | LGVVRPRALHRELDLVDDSPTPGSPGSFFRKNWLRLTW (also called polypeptide comprising PEP006; PEP006-containing polypeptide) [polypeptide LGVVRPRALHRELDLVDDSPTPGSPGSFFRKNWLRLTW (SEQ ID NO: 77)]

The next lines start with the binder.

Binder | Percent complexation with Hsc70 [1] [%] | Percent complexation with Hsc70 [2] [%] | Percent complexation with Hsc70 [3] [%] | Percent complexation with Hsc70 [4] [%] | Percent complexation with Hsc70 [5] [%] | binding result [6]
FFRKNWLRLTW (Synthetic peptide) [PEP006] | 81.5 | 88.3 | 91.8 | 53.4 | 25.4 | –
FFRKNLLRLTG (Synthetic peptide) [PEP001] | 68.1 | 82.5 | 90.1 | 44.7 | 23.4 | –
FFRKNWLLLTW (Synthetic peptide) [PEP003] | 67.2 | 81.3 | 87.6 | 45.6 | 26.8 | –
FFRKNLLRWTG (Synthetic peptide) [PEP004] | 46.8 | 62.5 | 75.3 | 29 | 15.4 | –
FFRKFWLRLTW (Synthetic peptide) [PEP008] | 61.8 | 79.1 | 81.6 | 38.3 | 24.4 | –
FFRKNWLRLLW (Synthetic peptide) [PEP009] | 81 | 85.3 | 89 | 63.5 | 32.8 | –
FFRKNWLRLFW (Synthetic peptide) [PEP010] | 64.9 | 79.3 | 86.5 | 42.2 | 19.1 | –
FFRKNWLRLKW (Synthetic peptide) [PEP011] | 81.6 | 87.8 | 90.4 | 58.2 | 31.2 | –
FFRKNWLKLTW (Synthetic peptide) [PEP012] | 79.2 | 86.2 | 89.5 | 58.2 | 29.9 | –
FFRKNRLLLTG (Synthetic peptide) [PEP002] | 48.7 | 64.8 | 78.8 | 32 | 19.2 | –
FFRKNRLWLTG (Synthetic peptide) [PEP005] | 54.8 | 67.6 | 77.6 | 32.7 | 16 | –
FFRKNWIRITW (Synthetic peptide) [PEP013] | 69.6 | 81.9 | 87.7 | 48.3 | 25.6 | –
